The target in one test is T1, C5aR1 (C5aR1-U937 cells) (Homo sapiens, UniProt P21730, K279N).
T1 construct: expressed in transfected cells
T1 sequence (P21730 with tags, fused parts or gaps K279N limits assumed): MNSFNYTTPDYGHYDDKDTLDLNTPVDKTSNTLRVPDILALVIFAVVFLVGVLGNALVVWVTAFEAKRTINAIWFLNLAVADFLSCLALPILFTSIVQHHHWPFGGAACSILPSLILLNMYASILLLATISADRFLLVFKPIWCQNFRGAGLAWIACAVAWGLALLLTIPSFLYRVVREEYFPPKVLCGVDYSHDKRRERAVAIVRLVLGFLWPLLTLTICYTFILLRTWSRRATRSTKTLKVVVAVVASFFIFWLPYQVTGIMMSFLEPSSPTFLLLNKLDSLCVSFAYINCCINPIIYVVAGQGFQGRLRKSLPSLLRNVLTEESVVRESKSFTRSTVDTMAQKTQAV
The test is described as follows: C5a induced calcium flux (Fluo-4), C5aR1-U937 cells. The format is cell-based. The source says: (§1) Intracellular calcium is released into the cytoplasm by stimulation of GPCRs and acts as a second messenger of GPCR signaling, commonly used to quantify GPCR agonism and antagonism. As such, calcium flux assays using calcium sensitive dye were utilized to detect cytosolic changes in calcium concentration. […] The dye penetrated the cell membrane and became active once inside the cell. The active form of the dye became fluorescent after binding to intracellular calcium and the fluorescence was used to determine C5aR1 signaling in response to C5a addition. Specifically, stable C5aR1-U937 cells or neutrophils isolated from whole blood were stained with Fluo-4 Direct Calcium Assay kit from Thermo Fisher for 1 hour at 37° C. Next, antibody or antagonist was incubated with the cells for 30 minutes. The basal fluorescence with an excitation at 494 nm and emission at 516 nm was measured for 15 seconds. C5a was added to the cells and the fluorescence was measured over a span of four minutes. The basal read from before C5a stimulation and the max signal after C5a stimulation were used to calculate the response ratio. The potency of the antibodies was assessed for their ability to inhibit intracellular calcium release in C5aR1 expressing cells in the presence of C5a. Similar to the chemotaxis assay, the calcium flux assays were performed using engineered cells stably expressing C5aR1 as well as using human neutrophils.
Background: Calcium flux is commonly read through the fluorescence of an indicator in the cells.

For test [1], the target named is T2, C5aR1 on human neutrophils (Homo sapiens, UniProt P21730).
T2 construct: neutrophils isolated from whole blood; host or cells: human neutrophils (cryopreserved, or isolated from whole blood)
T2 sequence (P21730 1-350): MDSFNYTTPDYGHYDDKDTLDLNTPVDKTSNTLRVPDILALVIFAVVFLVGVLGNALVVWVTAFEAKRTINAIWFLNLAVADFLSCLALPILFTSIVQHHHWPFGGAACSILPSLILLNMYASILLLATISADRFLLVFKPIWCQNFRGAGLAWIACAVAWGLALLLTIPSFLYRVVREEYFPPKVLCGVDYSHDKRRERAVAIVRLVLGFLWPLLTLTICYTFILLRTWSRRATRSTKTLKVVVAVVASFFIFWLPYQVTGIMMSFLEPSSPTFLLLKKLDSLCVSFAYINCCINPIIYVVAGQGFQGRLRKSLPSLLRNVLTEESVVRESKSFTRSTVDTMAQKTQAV
The test can be described thus: Cell surface binding (flow cytometry), human neutrophils. As to conditions: half-log titrations 10^−7.5 to 10^−12 M, vs isotype controls. The protocol: Follow up screening to ensure specificity was performed by measuring cell surface binding to cells expressing, for example, human C5aR1, human C5aR2, mouse C5aR1, and control cells that were mock transfected. Briefly, cell surface binding was performed on various C5aR1 expressing cell lines (transiently expressed Expi293 cells, stable C5aR1-U937 cells, and neutrophils isolated from whole blood). Briefly, a titration of antibody diluted in flow buffer (1×PBS with 2% fetal bovine serum) was incubated with cells for 1 hour at 4° C. Cells were washed twice with flow buffer. Anti-human-APC secondary antibody was diluted 1:400 in flow buffer and incubated with cells for 30 minutes. Cells were washed twice with flow buffer and resuspended in 100 μL of flow buffer. Fluorescence was measured using the iQue Screen Plus flow cytometer.
Exemplary anti-C5aR1 antibodies generated as described in Example 1 were tested for binding to human neutrophils. Briefly, cryopreserved human neutrophils were obtained from Asarte Biologics.
On the technique in general: Flow cytometry measures light scatter and fluorescence of single cells or particles in a stream.

In test [2] the target is T3, biotinylated peptide representing the N-terminus of C5aR1 without tyrosine sulfation (Homo sapiens, UniProt P21730).
T3 construct: the N-terminus without tyrosine sulfation
T3 sequence (P21730 1-37 limits assumed): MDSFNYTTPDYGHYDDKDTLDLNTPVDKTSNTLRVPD
The test is described as follows: Epitope mapping by biolayer interferometry, N-terminus without tyrosine sulfation. The format is binding. The arrangement: key: “+” indicates binding to the listed peptide; “−” indicates lack of binding to the listed peptide. As to conditions: 10 μg/mL of antibody, biotinylated peptide on streptavidin biosensor. On the procedure:
The epitope mapping was undertaken, using biolayer interferometry, on a series of exemplary anti-C5aR1 antibodies generated as described in Example 1. Briefly, for each antibody, biotinylated peptides representing ECL2, the N-terminus with tyrosine sulfation, and the N-terminus without tyrosine sulfation, were immobilized in a streptavidin biosensor. Subsequently, the biosensor was exposed to 10 μg/mL of antibody to detect antibody binding to the immobilized peptide. The results of the epitope mapping study are shown in Table 4 (“+” indicates binding to the listed peptide; “−” indicates lack of binding to the listed peptide).

In test [3] the target is T4, C5aR1 (human neutrophils) (Homo sapiens, UniProt P21730).
T4 construct: neutrophils isolated from whole blood; host or cells: human neutrophils (cryopreserved, or isolated from whole blood)
T4 sequence (P21730 1-350): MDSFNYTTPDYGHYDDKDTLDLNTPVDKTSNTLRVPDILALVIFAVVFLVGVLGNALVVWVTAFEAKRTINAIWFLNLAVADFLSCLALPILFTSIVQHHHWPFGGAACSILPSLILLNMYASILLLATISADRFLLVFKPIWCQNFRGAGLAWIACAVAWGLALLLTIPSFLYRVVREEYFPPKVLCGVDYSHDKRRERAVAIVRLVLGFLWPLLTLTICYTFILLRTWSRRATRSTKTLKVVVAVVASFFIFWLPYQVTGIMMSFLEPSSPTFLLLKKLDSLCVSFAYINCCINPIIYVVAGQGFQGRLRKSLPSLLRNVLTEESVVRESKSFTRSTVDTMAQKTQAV
The test is described as follows: C5a induced calcium flux (Fluo-4), human neutrophils. The format is cell-based.
Text: as §1

“Also recorded” adds a separate entry of the source. Read-outs that look alike come from different tables or passages of the source.

B1: clone 66: anti-C5aR1 Site I antibody; VH SEQ ID NO: 483, VL SEQ ID NO: 543 (antibody, V domains shown)
VH: QVQLQQSDAELVKPGASVKISCKASGYTFIDHAIHWVKQRPEQGLEWIGYISPGNGEIKYNEKFKAKATLTADKSSSAAYMQLNSLTSADSAVYFCKRALFYYTGKYQPMDYWGQGTTVTDSS
VL: DIVMTQSQKFMSTTAGDRVSITCKASQNVGSAVVWYQQKPGRSPKLLIYSSSIRYTGVPDRFTGSGSGTDFTLTINSVQSEDLADYFCQQYNSFPLTFGAGTKLEIK
As for B1, in the test with C5aR1 (C5aR1-U937 cells), the “inhibition of C5a induced intracellular calcium flux” value is “inhibited calcium flux as single agents in a dose-dependent manner”. Moreover, the “level of binding to human neutrophils” value in test [1] is listed as “highest level of neutrophil binding”. In test [2], the “Binding to Non-sulfated N-terminal peptide” value was “−”.

B2: clone 329: anti-C5aR1 Site II antibody; VH SEQ ID NO: 492, VL SEQ ID NO: 552 (antibody, V domains shown)
VH: QVQLQQSGAELTKPGASVKLSCKASGYTFTNYWMHWVKQRPGQGLEWIGYLNPSSGYTKYNQKFKDKATLTADKSSSTAYMQLNSLTYEDSAVYYCTRSGGDNYGNPYYFDRWGQGTTVTVSS
VL: DVVMTQTPLSLTVSLGDQASISCRSSQSLVHSNGNTYLHWYLQKPGQSPKFLIYKVSNRFSGVPDRFSGSGSGTDFRLKISRVEAEDLGVYFCSQSTLVPLTFGAGTKLEIK
Regarding B2, the “inhibition of C5a induced intracellular calcium flux” value with C5aR1 (C5aR1-U937 cells) (listed as 329) is listed as “inhibition of the C5a induced calcium efflux; also recorded: inhibited by antibody 329 in a dose-dependent manner; also recorded: inhibited calcium flux as single agents in a dose-dependent manner”. For the same molecule, the “inhibition of C5a induced calcium efflux” value in test [3] was “inhibition of the C5a induced calcium efflux”. Further, in test [1], the “level of binding to human neutrophils” value was “highest level of neutrophil binding”. Also, in test [2], the “Binding to Non-sulfated N-terminal peptide” value was “−”.

B3: clone 583: anti-C5aR1 Site I antibody; VH SEQ ID NO: 536, VL SEQ ID NO: 595 (antibody, V domains shown)
VH: EVQLVESGGGLVKPGGSLKLSCAASGFTFNAYAMSWVRQTPEKRLEWVASISTGGNTYCPDSVKDRFTVSRDNVRNILYLQMSSLRSEDTAMYYCTRGYQRFSGFAYWGQGTLVTVS
VL: DVVMTQTPLSPPVSLGYQASISCRSSQSLVHSNGNTYLNWYLQKPGQSPKLLIYKVSNRLSGVPDRFSGSGSGTDFTLKISRVETEDLGVYFCSQSTHVPYTFGGGTKLEIK
In the case of B3, the “inhibition of C5a induced intracellular calcium flux” value with C5aR1 (C5aR1-U937 cells) is given as “inhibition of the C5a induced calcium efflux”. The “inhibition of C5a induced calcium efflux” value in test [3] is “inhibition of the C5a induced calcium efflux”. For the same molecule, the “Binding to Non-sulfated N-terminal peptide” value in test [2] is “+”.

Values taken from US12187807B2, “Antibody molecules to C5AR1 and uses thereof” (Visterra, Inc., priority 2020, dated 2025).
